Laboratory results taken from article PMC10925046, “TERRA-LSD1 phase separation promotes R-loop formation for telomere maintenance in ALT cancer cells”.

What was measured:
LSD1 deltaIDR;CoREST = LSD1 deltaIDR;CoREST (human;human?, UniProt O60341;Q9UKL0 171-852;289-485, |); test: pull-down; EMSA: 4 C, 5 min, 0.75% agarose in 1x THE pH 7.4 (34 mM Tris, 66 mM HEPES, 0.1 mM EDTA) + 0.1 M K acetate, RNA folded in 10 mM Tris pH 7.4, 100 mM KCl, 1 mM TCE
LSD1 deltaIDR 3KE;CoREST = LSD1 deltaIDR 3KE;CoREST (human;human?, UniProt O60341;Q9UKL0 171-852;289-485, K355E;K357E;K359E|); test: as above

## UUAGGGUUAGGGUUAGGGUUAGGGUUAGGGUUAGGGUUAGGGUUAGGG (structured_RNA) [biotin-TERRA (UUAGGG)8]
LSD1 deltaIDR;CoREST
  binding result: binds
LSD1 deltaIDR 3KE;CoREST
  binding result: no binding
